# Assay: soluble on expression in E. coli; label from the status in PepcDB or PDB records
row,Sequence,soluble on expression in E. coli
1,MSLKLIATDLNGTLLHQDQGFNQPLLKETLSQLKQRGIRLVLASGNQYAHLKEVFREIWSTDLAVIAENGASIYLGDELVFDGSLTPQQVRLFLSATAQDEFLQNAYLILVGAQGSYTRVGAPAPLIAAAEKFYDHLQQVMSLETVTDRIKKISVSTAPEQAAALVQHLNQRFTGQLRAHDSGYGVIDVVSLHVGKLPAVQWLAQHWQIPATEIVAFGDGANDVPLLNYAGQSYAMKNAPVDIQAQAKHVTVWDNDRDGVLRTIATLLVADEGHHHHHH,soluble
2,MSLKLKTLALSLLAAGVLAGCSSHSSNMANTQMKSDKIIIAHRGASGYLPEHTLESKALAFAQHSDYLEQDLAMTKDGRLVVIHDHFLDGLTDVAKKFPYRHRKDGRYYVIDFTLKEIQSLEMTENFETKDGKQAQVYPNRFPLWKSHFRIHTFEDEIEFIQGLEKSTGKKVGIYPEIKAPWFHHQNGKDIATETLKVLKKYGYDKKTDMVYLQTFDFNELKRIKTELLPQMGMDLKLVQLIAYTDWKETQEKDPKGYWVNYNYDWMFKPGAMAEVVKYADGVGPGWYMLVNKEESKPDNIVYTPLVKELAQYNVEVHPYTVRKDALPEFFTDVNQMYDALLNKSGATGVFTDFPDTGVEFLKGIKEGHHHHHH,soluble
3,MSLKLVFYGAGNMAHAIFTGIVNSKVIDSNDIYLTNRSNEVALKEYAEKLGVNYSYDDEALLKAADYVFLGTKPYDFESLAERIKPFITDKNKFISIMAGLPISYIREKLEADNPIARIMPNTNAHVGHSVTGISFSSNFGPNSKDEVDELINAFGSAIEVPEDNLHQVTAITGSGPAFLYHVFEQYVTAGTRLGLEKAQVEESIRNLIIGTSKMIERSELSMEQLRKNITSKGGTTQAGLNALSQHDLESVFEDCLRAAVDRSVELSSQDEGHHHHHH,soluble
4,MSLKLVKPKKFLGQHFLKDLKVAQDIADTVDTFPELPVLEVGPGMGVLTQFLVKKDRLVKVVEVDYESVAYLREAYPSLEDHIIEDDFLKMNLHRLFDGKPFVLTGNYPYNISSQIFFKMLENKDIIPCCTGMIQKEVAERIAAGPGSKTYGILSVLIQAWYKVEYLFTVSEHVFNPPPKVKSAVIRMTRNDTKEGHHHHHH,not soluble
5,MSLKLYYCRGACSLVVRIILNDLGLNFQDEEVDLKVKKTAGGDDFFKINPKGAVPTLVLDNGDILTENQVILQYLADTTPGQKLLAAVGESKRYHTLEWLNYISTELHKSLGMFFNPTVSEEIKSKILTPLVMTRFAYTNTRLEKGSYLMGNEFSLPDAYLFVMVSWAKYFKLDLSQFEHLTKFMDLMLARSSVAKSLQQEKLEGHHHHHH,soluble
6,MSLKNIFSVLEERVERTPDDNLVEYKNAQGEWAAFTAAEFKNKVVALAKGLIARGVMPGDSVSIIAHTCWQWTALDVAIMSIGALTVPVYETNSPAQVKMIFNDANVKMAFAEDDFQRDKIESVRDQCPDLGDVYVIGLGAIDTIIEYGRAVSDAEFLEREQAVKGSDLATIVYTSGSTGTPKGVELTHANFVFITYSGVNSMPDIAMKPNRRLLLFLPLAHVFARYMQFFCFAGNVSLGLSSNLKTILADFKAFKPTFILAVPRIFEKIYNAASQKAGAGFKGRVFADATQTACDWSHAQQSGGSIPLALNAKHALYNKLVYSSIMEVFGGHVEYAVSGGAPLDSSIAHFFNGVGLSLLEGYGMTETCAPSSVNPTEGYKIGTIGLPLQGVTMGVDEEGELCIKSPAVCAGYHNNPDVTKQQIVDGWLHTGDLGSIDDDGFVSIVGRKKDLIITAGGKNVSPCEMEASIMTSPVVSQCVMIGDRKPFIAAIISLDLAETNLWLESKGAEQVADLDEASKNPIVRAEVERAVNKANELASRAESIRKFEIVPDEFTEENGLVTPSMKARRQAVVEHYRTLIDKEGHHHHHH,not soluble
7,MSLKPQVYHVDAFTSQPFRGNSAGVVFPADNLSEAQMQLIARELGHSETAFLLHSDDSDVRIRYFTPTVEVPICGHATVAAHYVRAKVLGLGNCTIWQTSLAGKHRVTIEKHNDDYRISLEQGTPGFEPPLEGETRAAIINALHLTEDDILPGLPIQVATTGHSKVMIPLKPEVDIDALSPDLNALTAISKKIGCNGFFPFQIRPGKNETDGRMFSPAIGIVEDPVTGNANGPMGAWLVHHNVLPHDGNVLRVKGHQGRALGRDGMIEVTVTIRDNQPEKVTISGTAVILFHAEWAIELEGGSHHHHHH,soluble
8,MSLKQRPNVLLIVLDTARARTVLPGLESGLMPTLSRIASDGTTFTDATATAPWTLPSHAGMFTGKYTSSHGVHAGNHIFDPDSEPLASRISNAGYRTAGISGNVWISPEFGFDAGFDEFSMKWDLFWDAPELSSVISNRNTTATGDTILDVFRGQGPVDLLKGTLTTGYAKFLAERHDDGAHHTTSRTVEWLEQNGTEDDPFFYFLNYVEPHLPYEPPAPFLDEYLPDGADPSRVSDLNQDPWQYVAGDQELTDADVEIFKGLYEAELAYLDTQLERLYDTLAEQCILDETAIILVGDHGENIGEHGLMDHQYCLYETLIHVPLVIRYPELFDEEEVSGPVELRDLYPTVTDLAGAEQPADTDVSTHSLVPRDGTVPVRDRAIAEYLVPQPSMDSLREAVESFDEAATRFDRPLRAIKTTDWKFIEAPDDTELYDRDDDPIEWIDVASIHPDICELLGTDLRDELGRLARGTSDSNTISANKKERLEDLGYLQ,not soluble
9,MSLKQYETIILHRHVRPDPDAYGSQMGLAEIIRASFPEKKVYSVGNDEKSLQFLGIVDEITDEIYKDALVIVCDTANQERISDGRFNLGKALIKIDHHPNDDAYGDLLWVDTTASSCSEMIVAFWEMFSDELILNETAARLLYAGIVGDTGRFLYPSTTEETLRLSAHLVTFPFDRPALYRELYELPKNTVKLSGYILQNFVMDENGAATVYLSDTLLNEFEVDPRDASALVSCIENVKGIKAWIMFIQEGPVFRARLRSKGPVINELAKEYGGGGHPLASGATLHNEEEIKEMTAKLQRIEGHHHHHH,not soluble
10,MSLKREIILYKSISTDLLEQLKNRFIVHQHQLKSEMDDSFFSDLQRVEGIIGSKLRVDGHLLDQAPHLKIVTNISVGYDNLEIEELTKRGIMATNTPDVLTDTVADTVFGLLLATSRRICELDQYVKLGRWDENIGEHLFGVDVHHKTLGIIGMGRIGLAVAERAHYGFKMKIVYHNRSTHSYAEKNINATYASLEELLTVSDFVLVMAPLVPETVKLIGEKEFDLMKETAIFLNGSRGELVDELALIHALQSKKIWGAGLDVYEQEPISKESLLLQLKNVVTLPHIGSATRETRYKMAKLAVDNLMKGFTGEVPPSLINPDVLTDEGHHHHHH,not soluble
11,MSLKRNNVNVVNRTKNSNPEFRIPLHYKHKIPFVLSDAIERNHDQDLTAEVHFYLALPPERCRRIYKSRRKALNAMLRAILYHVNVISKQVPISATMLTEYCGLTTISAAGNKSVTRGTRTLAMLRDLGFITYRQCWDRVSRRYFPSAIAVTERLIDLVGICPERWRTELNNKLANYNHKIFKKEGITLNEYDYARNLREDQLKRSYMYHSNRKEIKKKKKEATRLEKLVKIKGENELRHLISRQVSEEFLKGFIPGAQLKDLKKIVDKRINTLKKIAKSLHEGHHHHHH,not soluble
12,MSLKSTDIKIVEAKFSTEEVPFRTPLKFGGRVMDSSVLLNVEVIVETRNGKQGIGIGSMPAGNIWAWPSAVVSPEDSLKAMIEFLKEAVEIANICPEVAHPIDLMYHISAEYHFMAKKLSKRLGLAEEIPELAQLVASSPLDAAIHDGFGRANHINSYNGLSAEYMSHDLTEYLDDQFKGEYLDQYTLRDPKPTLPLYHLVGALDPITEADISERVDDGLPETLGEWIKADGLTHLKIKLSGDNMDWDISRVIAVENEAVKAQGERGQDKWVYSLDFNEKCENVDYVLDFLNKIREQTPAAFDRVQYIEQPTNRDLKANPENKMHEAAKIKPVVIDESLVDYESLLLSRELGYSGVALKACKGQTESLFLGAAAQKFDMFLCVQDLTCCGYSFLHSASLAARIPSIAAIEGNGRQYCPGPNKKWKRSYPGMFNITDGTVKTSEGHHHHHH,not soluble
13,MSLKTKLIVVLGPTAVGKTALGIKLAQQFHGEIISGDSQQVYRKLDIGTAKATAAEQAAVPHHLIDVREVDENYSAFDFVQEATKEIANICARGYLPIIVGGTGLYLQSLLEGYHLGGQVDHEAVLAYRRELETLSDTELSQLVETKQIVMTEPNRRRLMRSLELHKFSQGVQNQGSPYDVLLIGLNDNRQDLYERINARVDKMMAAGLLDEAKWLYDNYPHAQATRGIGYKELFPYFAGDIGLEEAVEKIKQNTRRFAKRQLTWFKNRMAVSFYSVSDSDYKGKINQAVVDFLRNEGHHHHHH,soluble
14,MSLKTYKGYLIDLDGTMYNGTEKIEEACEFVRTLKDRGVPYLFVTNNSSRTPKQVADKLVSFDIPATEEQVFTTSMATAQHIAQQKKDASVYVIGEEGIRQAIEENGLTFGGENADFVVVGIDRSITYEKFAVGCLAIRNGARFISTNGDIAIPTERGLLPGNGSLTSVLTVSTGVQPVFIGKPESIIMEQAMRVLGTDVSETLMVGDNYATDIMAGINAGMDTLLVHTGVTKREHMTDDMEKPTHAIDSLTEWIPYIEGHHHHHH,soluble
15,MSLKVYVVKKGYRPGIYHSWPEAEEQVKGFPGAEYKSFSNIMEALDYQQMDPEDALKALQGAEDKLQAAIAKVRQGGSKKKQAESQKEFAASSKYAAHIFTDGGCRNNGTHKGGHVQADDKAAWAYLIEYGGQKLSASGGRFGATNNEMEMTAFLESLKKLEELGLNDQPLLFSLDSQYVIKAVSDNDQGPAWIKGWQRRGWKKADGSPVANRELWQEIAKEMAKFAQPEFEWVKGHANSAGNNFVDGLLNKYMDQEGHHHHHH,soluble
16,MSLLADLVNLDISDNSEKIIAEYIWVGGSGMDMRSKARTLPGPVTDPSKLPKWNYDGSSTGQAPGQDSEVILYPQAIFKDPFRRGNNILVMCDAYTPAGEPIPTNKRHAAAEIFANPDVIAEVPWYGIEQEYTLLQKDVNWPLGWPIGGFPGPQGPYYCSIGADKSFGRDIVDAHYKASLYAGINISGINGEVMPGQWEFQVGPSVGISAADEIWIARYILERITEIAGVVVSFDPKPIPGDWNGAGAHTNYSTKSMREEGGYEIIKKAIEKLGLRHKEHISAYGEGNERRLTGHHETADINTFLWGVANRGASIRVGRDTEKEGKGYFEDRRPASNMDPYVVTSMIAETTLLWNP,soluble
17,MSLLDIIFPPNNNDDDFYGQHFSLIDSIIVKVAQDSNLSQSLRVYQYLYSWRLFGCMVAVVNNNKTLELGDKRGAIEALYEFITRFRIENPTGDVERKVKLKILEIYMIILNLLKSFENNQDQWFLKTNSYKETTTTRRRSIVSLNDLKLEYLEWLKNLDEDVSMFTEGHHHHHH,not soluble
18,MSLLFASLLKNRLRLGQLTMIDAKGQTHVLGGDGPGPRVTIRLTDPSLHRRLFLRPHLAIGEAYMEGTLIIERGGLRDFLELIGANLAAIEGSPWVALGQRLSGLMRRLQQRNPVWRSRRNVAHHYDLSGAFYDLFLDSDRQYSCAYFARDGDSLEQAQDNKKRLIAAKLMLRPGQHVLDIGCGWGGLALHLARHHDVRVTGITLSQEQAALARERVRAAGLQDRVTILLKDYRDLDGRFDRVVSVGMLEHVGAPQLADYFRHVGGLLSDDGVALIHSIGRMEPPGSTNVWIRKYIFPGGYSPALSETLAAVEGSGLYLTDAEILRLHYARTLAEWTRRFQANREAARALYDERFCRMWEFYLLGCEMAFRHGNQMVFQLQLARREGHHHHHH,soluble
19,MSLLFIFVVQSFAALSVEELTWDNGDTLLKFLQRNSIPMSLYYGLDREDQELASDIAYKIKYQVLKDENNNIEQVLIPISDDLQIHIYKDKDGQYTLAFTPVSYQKEDRILHLTIKSSAYQDVYEESGSSTLARAMVRAFRGSINFRNIQKGDEVTLYYEQKRRMGKLWGDINIKMAMVEINKSAREVFSYNDIFYDRDGKELESFLLTKPVNYTRISSPFTTARYHPILKRYRAHLGIDYAAPTGTPVKSAGKGVVTFIGTKGGYGNVIQIKHDSGYMTLYAHLSRFAKIKNGQKVNQGQVIAYVGSTGMSTGPHLHFGVYLNNKAINPASVVKIAKSELSGKAKENFKHIIAGYEQVVKEALASNQPNPPKEEDFENYIEGHHHHHH,soluble
